Data as given in PMC12667445, “Targeting RBM10‐Repressed RORB Activity in Liquid Condensates Inhibits Lysosomal Biogenesis and Neuroblastoma Progression via Affecting NF‐κB Signaling” (Advanced Science, 2025).

Target: T1, recombinant full‐length MBP‐tagged RBM10 (human, UniProt P98175 1-930)
T1 construct: RBM10 (variant 1 is the form found in NB cells), full length; Printed domain limits: RRM1 129-209, ZF1 212-242, RRM2 300-384, ZF2 759-784, G patch 858-904; The construct and its expression host are not described in the main text; They may be in the Supporting Information; source: recombinant, purified
Assay: co-IP; purified recombinant GST-tagged RORB and MBP-tagged RBM10, full-length or truncated; western blot
Conditions: both partners purified

T1 sequence (P98175 whole entry, the tested form may be a part): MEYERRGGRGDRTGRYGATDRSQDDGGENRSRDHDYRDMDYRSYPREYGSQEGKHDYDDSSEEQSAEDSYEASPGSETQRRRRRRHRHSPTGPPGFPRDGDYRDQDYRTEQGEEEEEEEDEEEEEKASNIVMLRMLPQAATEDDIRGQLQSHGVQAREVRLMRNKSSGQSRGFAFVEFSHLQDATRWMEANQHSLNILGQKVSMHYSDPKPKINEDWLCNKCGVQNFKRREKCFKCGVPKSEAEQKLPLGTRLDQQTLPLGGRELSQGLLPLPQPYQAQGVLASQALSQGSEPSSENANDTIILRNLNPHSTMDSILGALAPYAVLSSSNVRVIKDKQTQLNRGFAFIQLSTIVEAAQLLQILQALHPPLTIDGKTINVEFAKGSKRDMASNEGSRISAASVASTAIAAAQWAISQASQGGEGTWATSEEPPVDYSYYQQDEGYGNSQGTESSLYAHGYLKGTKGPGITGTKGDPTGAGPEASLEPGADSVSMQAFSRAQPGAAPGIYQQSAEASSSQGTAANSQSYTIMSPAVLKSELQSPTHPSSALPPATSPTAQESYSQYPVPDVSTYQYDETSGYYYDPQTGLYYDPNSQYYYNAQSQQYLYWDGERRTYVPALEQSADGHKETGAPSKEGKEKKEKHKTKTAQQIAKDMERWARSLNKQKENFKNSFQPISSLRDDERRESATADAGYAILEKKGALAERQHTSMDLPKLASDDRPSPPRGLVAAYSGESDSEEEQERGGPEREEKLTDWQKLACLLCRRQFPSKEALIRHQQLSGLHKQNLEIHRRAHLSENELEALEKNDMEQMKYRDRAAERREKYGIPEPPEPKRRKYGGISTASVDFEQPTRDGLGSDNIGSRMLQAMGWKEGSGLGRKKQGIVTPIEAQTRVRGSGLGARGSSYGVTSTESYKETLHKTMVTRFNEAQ

- binding result: binds
B1: recombinant full‐length GST‐tagged RORB (natural protein, UniProt Q92753-1 1-459, looked up)
chain: MRAQIEVIPCKICGDKSSGIHYGVITCEGCKGFFRRSQQNNASYSCPRQRNCLIDRTNRNRCQHCRLQKCLALGMSRDAVKFGRMSKKQRDSLYAEVQKHQQRLQEQRQQQSGEAEALARVYSSSISNGLSNLNNETSGTYANGHVIDLPKSEGYYNVDSGQPSPDQSGLDMTGIKQIKQEPIYDLTSVPNLFTYSSFNNGQLAPGITMTEIDRIAQNIIKSHLETCQYTMEELHQLAWQTHTYEEIKAYQSKSREALWQQCAIQITHAIQYVVEFAKRITGFMELCQNDQILLLKSGCLEVVLVRMCRAFNPLNNTVLFEGKYGGMQMFKALGSDDLVNEAFDFAKNLCSLQLTEEEIALFSSAVLISPDRAWLIEPRKVQKLQEKIYFALQHVIQKNHLDDETLAKLIAKIPTITAVCNLHGEKLQVFKQSHPEIVNTLFPPLYKELFNPDCATGCK
notes: The construct and its expression host are not described in the main text; They may be in the Supporting Information; source: recombinant, purified
